Data as given in the supplement of paper PMC12764529.
± gives the half width of the 95% confidence interval.

Columns and labels:
[1] = folding stability dG unfold from trypsin proteolysis; higher = more stable
Method in brief: (§1)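 Only designs with AlphaFold2 dimer inter-PAE above 15 were retained; each was a mini-protein under 80 residues with no cysteine, in a PA-tagged cDNA display construct. After digestion with trypsin and chymotrypsin and sequencing, K50 was inferred by Bayesian fitting of counts, and unfolding free energy was derived per protease or combined against a sequence-predicted unfolded-state K50 and a shared folded-state K50.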

[2] = folding stability dG unfold from chymotrypsin proteolysis; higher = more stable
Method in brief: as §1

[3] = folding stability dG unfold (combined trypsin and chymotrypsin); higher = more stable
Method in brief: as §1

Sequence | folding stability dG unfold [1] | folding stability dG unfold [2] | folding stability dG unfold [3]
SAGGSAGGSAGGDLLRDLPGLELRIETVTVTERYFDEDGELVEEREETVTRIELRRPGEESAGGSAGGSAGG [r7_614_TrROS_Hall] | 0.383 ± 0.2 kcal/mol | 2.15 ± 0.1 kcal/mol | 1.75 ± 0.2 kcal/mol
SMVEVLPDGTVVLAGELPPNVSIEEFLNSLPGLEIASVEFEPDPETGVTHFVFVVTPDGRVYVGSVPLGKSA [r9_238_TrMRF] | 1.25 ± 0.04 kcal/mol | 2.63 ± 0.041 kcal/mol | 2.25 ± 0.056 kcal/mol
SAGGLDGDMKVDEMEHDPNNGTYRYKAEAGDQWWTFEMKVVPVIPPIPISISPEDLQEGNWNISIWFSAGGS [r16_809_TrROS] | 1.46 ± 0.05 kcal/mol | 2.39 ± 0.08 kcal/mol | 2.09 ± 0.2 kcal/mol
SAGGSAGGSAGGKVTKVILYPLPGGKVRLIIYGDDGKPYFFETSFEDLKNFPNIPFIILPSAGGSAGGSAGG [r7_238_TrMRF] | 2.19 ± 0.069 kcal/mol | 2.27 ± 0.049 kcal/mol | 2.11 ± 0.073 kcal/mol
SAGMIKITIITENGEEITIEIPENMSEEELKELAEKIAKEIAKKLNIPKVKIKKIKIEKIELTPEQIKKSAG [r5_377_TrROS_Hall] | 0.887 ± 0.077 kcal/mol | 1.97 ± 0.098 kcal/mol | 1.89 ± 0.36 kcal/mol
SAGGSPPDNFKMEPIPLRFPNGWKITVMVMRNPDDGRPYVSVEIEPPNDGKEVKFMMPADDLKDFISAGGSA [r2_366_TrROS] | 1.5 ± 0.054 kcal/mol | 1.64 ± 0.23 kcal/mol | 1.66 ± 0.19 kcal/mol
SAGGSAGGSAGMEVFKSADGKRLLIRAKNGKVAEFDVETGELKFSKENLSPEDIEIVEVPSAGGSAGGSAGG [r17_174_TrROS_Hall] | 0.385 ± 0.2 kcal/mol | 1.05 ± 0.14 kcal/mol | 0.72 ± 0.22 kcal/mol
SAGKMKIIEVKPGEEIKITIPEEGKKVKIYVYNKNGEKVEEKEVEIKPGQTLTFKIPKEDAKVIIEIEDSAG [r5_797_TrROS_Hall] | 1.75 ± 0.062 kcal/mol | 3.11 ± 0.039 kcal/mol | 2.82 ± 0.18 kcal/mol
SAGGSAGGSSMYTYPELGVKVTTTPLPTDSTLVTATFPDGSVYKFTVDPSGNLVTSTPIVVNSSAGGSAGGS [r12_56_JUSTAS] | 0.326 ± 0.018 kcal/mol | 1.01 ± 0.064 kcal/mol | 0.784 ± 0.06 kcal/mol
SAGGSAGGSAGMLETIELPDGKRVRYDPVTGEWFVELDPELEEEVRERLDPDLPVRFEEVSAGGSAGGSAGG [r11_374_JUSTAS] | 1.74 ± 0.081 kcal/mol | 1.54 ± 0.063 kcal/mol | 1.62 ± 0.057 kcal/mol
SAGDPRLRVLVVDLEVEGLEELREFVEEHPDVEVLPRPDGRVLLRRVLLVEVEEPEGEEDPDGPTLHPDSAG [r5_129_TrMRF] | 0.966 ± 0.11 kcal/mol | 1.44 ± 0.18 kcal/mol | 1.26 ± 0.13 kcal/mol
SAGGSAGGSALDPSAPYVVLIDIDIEPEKAEVEKIPGIPKYIVKKIDLKITIKIEIVSAKDASAGGSAGGSA [r18_137_TrMRF] | 2.28 ± 0.17 kcal/mol | 3.14 ± 0.087 kcal/mol | 2.84 ± 0.08 kcal/mol
SAGGSAGGSAPPGQEFPFEPVEEESIPIYDPDNGEPPLTISVWKMRMPGGPPMTFIMISPMSAGGSAGGSAG [r3_166_TrROS] | 1.92 ± 0.034 kcal/mol | 2.32 ± 0.043 kcal/mol | 2.17 ± 0.069 kcal/mol
SAGGSAGGSGPMPVVVPVEVVVAPGEVDAYVARLRAEGLEVLSVETEPDPEGGTRVTVTVRRLSAGGSAGGS [r12_905_JUSTAS] | 2.74 ± 0.054 kcal/mol | 3.72 ± 0.057 kcal/mol | 3.41 ± 0.059 kcal/mol
SKKMTAEELLKKFPNVVFIRLKNGKIIAFNKETKEIYIFNLKTGKVEKIKVTPEELEKLAKENNFEIYPVSA [r9_721_TrROS_Hall] | 2.48 ± 0.078 kcal/mol | 3.32 ± 0.064 kcal/mol | 3.12 ± 0.12 kcal/mol
SAGGGMSEEYVKKLFESLGFTKLETREYPGLKVTTFSAKDLTVVAYPDGTIEIFDKNGNLIKTDKGLSAGGS [r8_147_JUSTAS] | 1.06 ± 0.021 kcal/mol | 1.82 ± 0.03 kcal/mol | 1.54 ± 0.049 kcal/mol
SAGGSAGGSAGMKITVTITTTTTVSVEPPESSAAVGPVVYRQTLTLNLSPEEAAALLKKSSAGGSAGGSAGG [r17_283_JUSTAS] | 1.17 ± 0.035 kcal/mol | 1.16 ± 0.14 kcal/mol | 1.25 ± 0.11 kcal/mol
SAGGSMPFRPLDVKVTVERLPDGTIRITTTLRQPDSPAAVTTEVKEVPLAELVKKRGRPVTAEDLLSAGGSA [r2_180_JUSTAS] | 0.132 ± 0.12 kcal/mol | 1.21 ± 0.096 kcal/mol | 0.858 ± 0.19 kcal/mol
SAGGSAKTIEITLEDGSKVTITEVKDGYIRIYVSEEAKEALKKLGLEEVDEENNVITLPLEKLKKLSAGGSA [r15_984_TrROS_Hall] | 1.22 ± 0.052 kcal/mol | 1.86 ± 0.045 kcal/mol | 1.62 ± 0.1 kcal/mol
SAGMTEEELKKLKEKFPNLKIEPVKTITIKVEPNASVEEIAKKLKELLNIDKVEIEVNEETGEITIRIYSAG [r5_694_TrROS_Hall] | 2.98 ± 0.15 kcal/mol | 4.07 ± 0.16 kcal/mol | 3.69 ± 0.23 kcal/mol
SAGGGIVEKIKKIIKEAGYKAKVEESEDGIHIVVEAPIEAGKVLEKKIKEATGKEIKIEYVPPGKGASAGGS [r16_514_TrMRF] | 2.21 ± 0.19 kcal/mol | 3.54 ± 0.25 kcal/mol | 3.25 ± 0.16 kcal/mol

Sequence | folding stability dG unfold [1] | folding stability dG unfold [2] | folding stability dG unfold [3]
SAGGSAGGSAGGSVVTRLPNGSYRYTVTRVSFDPKTGTWSSETTVLTVPPDRPVEIPPGSAGGSAGGSAGGS [r4_48_JUSTAS] | 1.14 ± 0.049 kcal/mol | 2.26 ± 0.11 kcal/mol | 1.89 ± 0.096 kcal/mol
SAGGSELKPGDLVVRIEIKVEVEEVRVNENGEVEVKLRVEIRIEVRPLPPPPEPSEEELLNPDGEESAGGSA [r2_495_TrROS_Hall] | 2.74 ± 0.27 kcal/mol | 1.89 ± 0.12 kcal/mol | 2.33 ± 0.27 kcal/mol
SMSLTIPEELIEAIKKALEELEPGEEVTITYNLPDGSVITVKVVGKGEVTITVYSSPDSQTQTYTFEIKESA [r9_132_JUSTAS] | 3.15 ± 0.061 kcal/mol | 3.313 ± 0.023 kcal/mol | 3.25 ± 0.069 kcal/mol
SAGGMSVKIEEKTHPETNEITINVEYDDIEKAKKEIAEKIKKENGNIPVTLVDKNGKPITIPLKELISAGGS [r8_236_JUSTAS] | 0.0225 ± 0.087 kcal/mol | 0.368 ± 0.03 kcal/mol | 0.317 ± 0.099 kcal/mol
SAGGSAEFKIEAEVLSKEVNPETGKPVVKVKIKIEKYNPETGKKEEKEIELELSEEELEKLLKELGSAGGSA [r2_357_TrMRF] | 3.61 ± 0.23 kcal/mol | 2.93 ± 0.08 kcal/mol | 3.13 ± 0.13 kcal/mol
SPEKEIKVKYELPEPGSGPVKVEATFTINPKTGEVKMPVTLTRPGSSSQVNLPEELLKELKNKVLEELGKSA [r9_1136_JUSTAS] | -0.621 ± 0.29 kcal/mol | 0.795 ± 0.089 kcal/mol | 0.442 ± 0.083 kcal/mol
SATGAIVLEKPVEFNIPDKNGKPVFKSKVLIFVDPGKDKVYALIYDPKTGKKLIVEFNSPEEVKKFFESSAG [r14_508_TrMRF] | 1.65 ± 0.031 kcal/mol | 1.54 ± 0.12 kcal/mol | 1.65 ± 0.077 kcal/mol
SAGGMKIEIEIEMTPEEVRKAIEELAKALGLKIVKVEVEVERKEDGTLRVRVTIEIEPLPEEELEPESAGGS [r8_374_TrROS_Hall] | 3.63 ± 0.16 kcal/mol | 4.32 ± 0.18 kcal/mol | 4 ± 0.25 kcal/mol
SAGGSAGGLTLRLELEIRLEDGLTLRVRVEYDLETNEVKIEIELLPPAPPVEEEPEVLVVEEEESAGGSAGG [r6_926_TrROS_Hall] | 3 ± 0.29 kcal/mol | 4.28 ± 0.29 kcal/mol | 3.78 ± 0.41 kcal/mol
SAGGSAMVVRIEVDGKTIEIPAGASLEELKALLAENPGARFRIEVVEPPPPELSEEERKALEEARKSAGGSA [r15_36_TrROS_Hall] | 1.35 ± 0.019 kcal/mol | 1.32 ± 0.077 kcal/mol | 1.37 ± 0.1 kcal/mol
SAGGFKIEYTGNYYTIELPGLKIMVNPNMGMMRIKLPGNGKKITIPVPMNNWEDMLDAVKEILKELGSAGGS [r8_447_TrROS] | 3.17 ± 0.17 kcal/mol | 2.18 ± 0.099 kcal/mol | 2.56 ± 0.26 kcal/mol
SARRDGSKVFLELERVVPLDVPLETVLEEVRRLFPEDAEIRLEAVPRRDLLDGVPREYRVVRVIVVRDDSAG [r14_633_TrMRF] | 1.06 ± 0.058 kcal/mol | 2.16 ± 0.039 kcal/mol | 1.79 ± 0.15 kcal/mol
SAGGSAGGMKPISRSTYTNPLNGTTITVTKYPETGEYVITLPDGTTYTVPKSVPITSVEEAIKNSAGGSAGG [r6_72_JUSTAS] | 0.32 ± 0.066 kcal/mol | 1.32 ± 0.15 kcal/mol | 0.977 ± 0.096 kcal/mol
MLLEFESEEELEKAIKELIEKAKKEVEEKGKKNEELKINIPVILHDKETGKETTRPITINIKPDGKITILDS [r1_316_JUSTAS] | 0.953 ± 0.13 kcal/mol | 1.05 ± 0.13 kcal/mol | 1.01 ± 0.23 kcal/mol
SAGGSAGGSKLSEEEKKKLAKKPKIKIKVKIRNKDGKEYKPGEKVKIEINGKIYEIESIEIEPSAGGSAGGS [r12_43_TrROS_Hall] | 1.12 ± 0.049 kcal/mol | 1.36 ± 0.04 kcal/mol | 1.3 ± 0.085 kcal/mol
SAGGSAGGSAGGKTLKLTLTLKVEVKETVTTTTADGTTEERPVKEVEVKLTATIDLSDLSAGGSAGGSAGGS [r10_355_TrROS_Hall] | 3.04 ± 0.24 kcal/mol | 4.38 ± 0.2 kcal/mol | 4 ± 0.3 kcal/mol
SAGGSAGGPEIRITEARRDPNGMFTFIVEIPPEDLDNIKPGEEIEITFNGQEFNFNVQIIPADDSAGGSAGG [r6_373_TrROS] | 0.257 ± 0.14 kcal/mol | 1.13 ± 0.2 kcal/mol | 0.716 ± 0.29 kcal/mol
SAGGSAGGSAMDVFTAALNNKELEEAIKKASPDEKEIEIELPGGKKIRIFRTDDGGYIFEPSAGGSAGGSAG [r3_124_TrMRF] | 1.8 ± 0.055 kcal/mol | 1.32 ± 0.11 kcal/mol | 1.52 ± 0.11 kcal/mol
SAGGSAGGSAGKKPEKYILIKVKKEDVEKLLEAIKKLLPPGAEIVKIEKTPEYVYIVVKLSAGGSAGGSAGG [r11_698_TrROS_Hall] | 3.39 ± 0.13 kcal/mol | 4.38 ± 0.07 kcal/mol | 4.21 ± 0.086 kcal/mol
SAGGSAGGSFVDPDGYKVIEFPIPMDDPGRIKEEVMDQFNLKDVKVEWEPTPGWYWVSIIVEPSAGGSAGGS [r12_929_TrROS] | 0.74 ± 0.093 kcal/mol | 0.815 ± 0.16 kcal/mol | 0.832 ± 0.14 kcal/mol
SAGGSAGGSATTIEITLPDGTKAVTLSTTSENSILLLVTAPDSPSLGFIDKNNPNNIILLKSAGGSAGGSAG [r3_450_JUSTAS] | 0.467 ± 0.054 kcal/mol | 0.623 ± 0.1 kcal/mol | 0.627 ± 0.093 kcal/mol
